Data on one substance can be found in US20220395548A1.

The target in test [1] is gp120 of HIV-1NL4-3 (on virus particles) (HIV-1 (NL4-3)). Description: immunoblot with 2G12, band value, 3rd column: Day 12, - MoMo30 by the order of the lanes above. For orientation: In western blotting, separated proteins are transferred to a membrane and probed.
For test [2] the target is unchanged. The test can be described thus: immunoblot with 2G12, band value, 4th column: Day 5, + MoMo30 by the order of the lanes above.
Test [3] shares this target. The test can be described thus: immunoblot with 2G12, band value, 6th column: Day 12, + MoMo30 by the order of the lanes above.
Test [4] has the same target. Description: immunoblot with 2G12, band value, 1st column: Day 5, - MoMo30 by the order of the lanes above.
For test [5] the target is unchanged. The test can be described thus: immunoblot with 2G12, band value, 5th column: Day 8, + MoMo30 by the order of the lanes above.
For test [6] the target is unchanged. Description: immunoblot with 2G12, band value, 2nd column: Day 8, - MoMo30 by the order of the lanes above.

“monoclonal antibody 2G12 (AIDS reagent program; cat #1476)”: the gp120 (row of the table under the blot) in test [1] came to 100; in test [2], 87; in test [3], 16; in test [4], 65; in test [5], 51; in test [6], 51.
